According to patent publication US20210363269A1 (ALX ONCOLOGY, published 2021):

T1: cynomolgus SIRP-α D1 domain (cyno2) (cynomolgus monkey, UniProt Q5TFQ8 30-148 (human entry), limits assumed)
T1 chain: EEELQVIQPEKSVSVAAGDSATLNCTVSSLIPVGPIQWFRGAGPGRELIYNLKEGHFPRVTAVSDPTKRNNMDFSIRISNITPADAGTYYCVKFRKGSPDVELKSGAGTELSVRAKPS

T2: mouse 129 SIRP-α D1 domain (mouse (129 strain), UniProt P97797 32-150)
T2 construct: also called m129
T2 chain: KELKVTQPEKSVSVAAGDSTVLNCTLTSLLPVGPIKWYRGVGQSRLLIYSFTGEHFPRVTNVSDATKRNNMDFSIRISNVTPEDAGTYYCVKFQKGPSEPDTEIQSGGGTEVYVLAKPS

T3: high affinity SIRP-α D1 variant CV1-3
T3 chain: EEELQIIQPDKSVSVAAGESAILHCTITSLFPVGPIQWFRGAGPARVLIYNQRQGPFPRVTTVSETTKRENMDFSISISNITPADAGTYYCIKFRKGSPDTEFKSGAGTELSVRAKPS

T4: cynomolgus SIRP-α D1 domain (cyno1) (cynomolgus monkey, UniProt Q5TFQ8 30-148 (human entry), limits assumed)
T4 chain: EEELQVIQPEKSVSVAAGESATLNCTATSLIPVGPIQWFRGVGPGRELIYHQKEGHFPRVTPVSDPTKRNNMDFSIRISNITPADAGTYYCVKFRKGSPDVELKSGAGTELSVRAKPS

T5: C57BL/6 mouse SIRP-α D1 domain (mouse (C57BL/6 strain), UniProt P97797 32-148)
T5 sequence: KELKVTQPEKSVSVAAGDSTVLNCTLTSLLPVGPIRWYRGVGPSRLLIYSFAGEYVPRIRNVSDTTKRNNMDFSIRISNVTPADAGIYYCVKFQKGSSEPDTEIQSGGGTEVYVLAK

T6: NOD mouse SIRP-α D1 domain (mouse (NOD strain))
T6 chain: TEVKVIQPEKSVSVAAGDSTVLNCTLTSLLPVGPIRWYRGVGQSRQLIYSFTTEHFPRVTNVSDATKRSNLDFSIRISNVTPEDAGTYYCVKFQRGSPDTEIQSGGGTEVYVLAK


Legend:
[1] = molecular target: T7, human SIRPβ isoform 1 (human, UniProt O00241 30-148); experiment: SPR, Langmuir fit
T7 construct: also called SIRPb; sirpb1
In short: (§1)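 Dissociation rate constants (koff) were measured on a ProteOn XPR36 instrument by Langmuir model fitting. Antibody clones in scFv-Fc format were captured from pre-filtered culture media onto a GLC chip with about 4000 RU of amine-coupled anti-human IgG Fc. SIRP analytes ran in PBS pH 7.4 with 0.01% Tween-20 at 25° C, and the model used was 1:1, applied to data double-referenced against interspot and buffer-blank responses.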

[2] = molecular target: T8, human SIRPγ isoform 1 (human, UniProt Q9P1W8 29-147); experiment: SPR, Langmuir fit
T8 construct: also called SIRPg; sirpg
In short: as §1

[3] = molecular target: T1, cynomolgus SIRP-α D1 domain (cyno2); experiment: SPR, Langmuir fit
In short: as §1

[4] = molecular target: T2, mouse 129 SIRP-α D1 domain; experiment: SPR, Langmuir fit
In short: as §1

[5] = molecular target: T3, high affinity SIRP-α D1 variant CV1-3; experiment: SPR, Langmuir fit
In short: as §1

[6] = molecular target: T4, cynomolgus SIRP-α D1 domain (cyno1); experiment: SPR, Langmuir fit
In short: as §1

[7] = molecular target: T9, human SIRP-α v1 D1 domain (human, UniProt P78324 31-149); experiment: SPR, Langmuir fit
T9 construct: also called human v1
In short: as §1

[8] = molecular target: T5, C57BL/6 mouse SIRP-α D1 domain; experiment: SPR, Langmuir fit
In short: as §1

[9] = molecular target: T6, NOD mouse SIRP-α D1 domain; experiment: SPR, Langmuir fit
In short: as §1

[10] = molecular target: T10, human SIRP-α v2 D1 domain (human); experiment: SPR, Langmuir fit
T10 construct: also called human v2
In short: as §1

[11] = molecular target: T11, human SIRP-α v2 (human); experiment: SPR
T11 construct: also called Human v2; Human V2
In short: (§2)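 On a ProteOn XPR36 biosensor, purified antibodies were either amine-coupled to a GLC chip or captured on an NLC chip using biotinylated Protein A. The running buffer was PBS pH 7.4 with 0.01% Tween-20, at 25° C. SIRP analytes, at nominal concentrations fixed by A280 absorbance, were injected in one-shot kinetic mode. The rate constants are apparent values from a global simple Langmuir fit of double-referenced data, and KD equals kd/ka.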

[12] = molecular target: T12, human SIRP-α v1 (human, UniProt P78324 31-149); experiment: SPR
T12 construct: also called Human v1; Human V1
In short: as §2

T8 sequence (Q9P1W8 29-147 limits assumed): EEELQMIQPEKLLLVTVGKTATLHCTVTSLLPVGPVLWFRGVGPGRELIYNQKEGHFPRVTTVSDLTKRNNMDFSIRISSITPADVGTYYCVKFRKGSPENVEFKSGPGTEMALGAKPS
T9 sequence (P78324 31-149 limits assumed): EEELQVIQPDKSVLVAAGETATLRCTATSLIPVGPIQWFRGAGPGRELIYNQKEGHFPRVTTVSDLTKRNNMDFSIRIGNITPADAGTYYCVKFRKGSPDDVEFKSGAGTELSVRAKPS
T7 sequence (O00241 30-148 limits assumed): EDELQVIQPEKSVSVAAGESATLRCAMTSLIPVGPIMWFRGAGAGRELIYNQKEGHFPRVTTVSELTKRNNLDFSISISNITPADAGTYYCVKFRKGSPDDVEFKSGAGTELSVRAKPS
T10 sequence (chain, as listed by the source limits assumed): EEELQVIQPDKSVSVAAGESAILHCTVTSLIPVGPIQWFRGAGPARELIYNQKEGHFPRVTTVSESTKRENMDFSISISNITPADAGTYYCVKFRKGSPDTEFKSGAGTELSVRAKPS
T12 sequence (P78324 31-149 limits assumed): as the sequence (P78324 31-149 limits assumed) above
T11 sequence (chain, as listed by the source limits assumed): as the sequence (chain, as listed by the source limits assumed) above

Binder	koff [1] [s⁻¹]	koff [2] [s⁻¹]	koff [3] [s⁻¹]	koff [4] [s⁻¹]	koff [5] [s⁻¹]	koff [6] [s⁻¹]	koff [7] [s⁻¹]	koff [8] [s⁻¹]	koff [9] [s⁻¹]	koff [10] [s⁻¹]	Kd [11] [pM]	Kd [12] [pM]
S25 (scFv, V domains shown, also called clone 25; scFv-Fc form of AB25) VH: DVQLVESGGGVVRPGESLRLSCEASGFTFSSNAMSWVRQAPGKGLEWVAGISSGSDTYYGDSVKGRLTISRDNSKNILYLQMNSLTAEDTAVYYCARETWNHLFDYWGLGTLVTVSS VL: ALTQPASVSANPGETVEITCSGGSYSSYYYAWYQQKSPGSAPVTLIYSDDKRPSNIPSRFSGSASGSTATLTITGVRAEDEAVYFCGGYDQSSYTNPFGAGTTLTVL	0.000171	0.000141	0.000212	0.000133	0.00014	0.000219	0.000112	0.00029	0.000779	0.000209		
S28 (scFv, V domains shown, also called clone 28) VH: DVQLVESGGGVVRPGESLRLSCAASGFSFSSNAMSWVRQAPGKGLEWVAGISASGDTYYSGSMKGRFTISRDNSKNTLYLQMNSLTAEDTAVYYCARETWNHLFDYWGLGTLVTVSS VL: ALTQPASVSANPGETVKITCSGGSDSYYYGWHQQKSPGSAPVTVIYSDDQRPPDIPSRFSGSASGSTTTLTITGVRAEDEAVYYCGGYDYSTYTNTFGAGTTLTVL	6.29e-05	3.27e-05	0.000132	0.000306	6.59e-05	0.000115	2.11e-05	0.00186	0.000616	1.47e-05		
S73 (scFv, V domains shown, also called clone 73) VH: DVQLVESGGGVVRPGESLRLSCEASGFTFSSNAMSWARQAPGKGLEWVAGISSGSDTYYGDSVKGRLTISRDNSKNILYLQMNSLTAEDTAVYYCARETWNHLFDYWGLGTLVTVSS VL: ALTQPASVSANPGETVKITCSGGIYSSYYYAWYQQKSPGSAPVTLIYSDDKRPSNIPSRFSGSASGSTATLTITGVRAEDEAVYFCGGYDQSSYTNPFGAGTTLTVL	0.000108	7.3e-05	0.000119	0.000164	5.28e-05	0.000127	1.9e-05	0.000373	0.00148	7.49e-05		
antibody 16 (antibody, V domains shown, also called S16) VH: DVQLVESGGGVVRPGESLRLSCAVSGFRFSSYAMSWVRQAPGKGLEWVSGISSGGDTYYVDSVKGRFTISRDNSKNTLYLQVNSLTAEDTAIYYCARETWNHLFDYWGLGTLVTVSS VL: ALTQPASVSANLGETVKITCSGGDSSSHYYGWYQQKSPGSAPVTVIYSDDERPSDIPSRFSGSASGSTATLTITGVRVEDEAIYYCGAYDGSTYANTFGAGTTLTVL											< 1	< 1
S3 (scFv, V domains shown, also called clone 3; scFv-Fc form of AB3) VH: AVTLDESGGGLQTPGGALSLVCKASGFIFSDYGMNWVRQAPGKGLEFVAQITSGSRTYYGAAVKGRATISRDNRQSTVKLQLNNLRAEDTGIYFCARDFGSGVGSIDAWGNGTEVIVSS VL: ALTQPASVSANLGGTVKITCSGSRGRYGWYQQRSPGSAPVTVIYRDNQRPSNIPSRFSSSTSGSTSTLTITGVQADDESVYFCGSYDGSIDIFGAGTTLTVL	0.00192	0.000162	0.00174	0.000655	0.000394	0.00218	0.00041	0.00197	0.00119	0.000276		
S202 (scFv, V domains shown) VH: DVQLVESGGGVVRPGESLRLSCAASGFTFSSYAMSWVRQAPGKGLEWLAGISAGGSDTYYIDSVKGRFTISRDNSKNSLYLQMNSLTAEDTAVYYCARETWNHLFDYWGLGTLVTVSS VL: ALTQPASVSANPGETVKITCSGGGYYSTYYGWYQQRSPGSAPVTVIHSDDKRPSDIPSRFSGSASGSAATLTITGVRVEDEAVYYCAGYDGRTYLNTFGAGTTLTVL	0.00205	4.44e-05	0.00012	4.58e-05	6.86e-05	0.000113	3.75e-05	0.00063	0.000509	5.4e-05		
S22 (scFv, V domains shown, also called clone 22) VH: DVQLVESGGGVVRPGESLRLSCAASGFTFSSYAMSWVRQAPGKGLEWLAGISAGGSDTYYIDSVKGRFTISRRQFQEQSLSPNEPALTAEDTAVYYCARETWNHLFDYWGLGTLVTVSS VL: ALTQPASVSANPGETVKITCSGGDYYSTYYGWYQQKSPGSAPVTVIHSDDKRPSDIPSRFSGSASGSAATLTIAGVRVEDEAVYFCGAYDGRTYINTFGAGTTLTVL	0.000138	0.000108	0.000177	0.000153	0.000135	0.000177	0.000121	0.000736	0.000583	0.000146		
S24 (scFv, V domains shown, also called clone 24) VH: DVQLVESGGGVVRPGESLRLSCAASGFTFSSNAMSWVRQAPGKGLEWLAGISAGGSDTYYPASVKGRFTISRDNPKNTLYLQMNTLTAEDTAVYYCARETWNHLFDYWGLGTLVTVSS VL: ALTQPASVSANPGETVKIACSGGSYYSYYYGWYQQKSPGSALVTVIYSDDKRPSGIPSRFSGSASGSTATLTITGVRAEDEAVYYCGGYDYSSYTNDFGAGTTLTVL	0.000194	0.000197	0.000334	0.000402	0.000216	0.000382	0.000257	0.00126	0.00386	0.000317		
S21 (scFv, V domains shown, also called clone 21; scFv-Fc form of AB21) VH: DVQLVESGGGVVRPGESLRLSCAASGFTFSSNAMSWVRQAPGKGLEWLAGISAGGSDTYYPASVKGRFTISRDNSKNTLYLQMNTLTAEDTAVYYCARETWNHLFDYWGLGTLVTVSS VL: ALTQPASVSANPGETVKIACSGGDYYSYYYGWYQQKAPGSALVTVIYSDDKRPSDIPSRFSGSASGSTATLTITGVRAEDEAVYYCGGYDYSTYANAFGAGTTLTVL	0.00019	0.000184	0.000252	0.000281	0.000195	0.000233	0.00018	0.000806	0.00264	0.000207		
S201 (scFv, V domains shown) VH: DVQLVESGGAVVRPGETLRLSCTASGFTFSSYAMSWVRQAPGKGLEWVSGISASGSDTYYADSVKGRSTISRDNSKNTLYLRMSSLTAEDTAVYYCARETWNHLFDYWGLGTLVTVSS VL: ALTQPASVSANPGETVKITCSGGGTSSYYGWYQQKSPGSAPVTLIHSDDKRPSDIPSRFSGSASGSTATLTITGVQVEDEAVYYCGGYDYTTYVNTFGAGTTLTVL	0.0041	0.000185	0.000522	0.000818	8.32e-05	0.000636	3.46e-05	0.00111	0.00215	4.27e-05		
S206 (scFv, V domains shown) VH: DVQLVESGGAVVRPGETLRLSCTASGFTFSSYAMSWVRQAPGKGLEWVSGISASGSDTYYADSVKGRSTISRDNSKNTLYLRMSSLTAEDTAVYYCARETWNHLFDYWGLGTLVTLSS VL: ALTQPASVSANPGETVKITCSGGGTSSYYGWYQQKSPGSAPVTLIHSDDKRPSDIPSRFSGSASGSTATLTITGVQAEDEAVYYCGGYDYTTYVNTFGAGTTLTVL	0.00437	0.000192	0.000518	0.000901	8.22e-05	0.000624	3.5e-05	0.00157	0.00223	3.6e-05		
